Consider two molecules from patent US20210277441A1, “METHOD OF SELECTING A POLYPEPTIDE OF INTEREST” (IMPERIAL COLLEGE INNOVATIONS LIMITED, priority 2018, published 2021).

One experiment concerns AL cells. Kind of experiment: 1H NMR analysis of fermentation broth of anaerobic cultures. It counts as cell-based, Escherichia coli. The arrangement: Substrate concentration: unit not given here.
Experiment [1] in a line: Kinetics of evolved and parental enzymes, 2-methylpyrroline as variable substrate. It counts as biochemical. The conditions noted are these: reductase activity towards 2-methylpyrroline.
In experiment [2] the test system is LS1 strain (ΔadhE ΔldhA double mutant) cells. The experiment is described as follows: Metabolic complementation (anaerobic growth recovery) of LS1/AL strain. The class given is cell-based, Escherichia coli. Here is the method:
(§1) The LS1 mutant strain and the parental BW25113 strain were transformed with the desired plasmid and overnight pre-cultures were grown aerobically in 15 mL Falcon tubes with M9 media (0.4% glucose). These pre-cultures were used to inoculate 10 mL Hungate tubes with M9 medium (0.4% glucose) supplemented with 100 μg/mL ampicillin, 1 mM IPTG and with or without the specific substrate of the dehydrogenase under anaerobic conditions at 37° C. Metabolic complementation was assessed by measuring the optical density at 600 nm every two hours during daytime.

Experiment [3] relates to triple mutants (adhE, ldhA and one transhydrogenase gene knocked out). Kind of experiment: Metabolic complementation of triple mutants. The class given is cell-based, E. coli. The conditions noted are these: any of the triple mutants. The text has this:
As LS1 (ΔadhE-ΔldhA double mutant) was able to grow when transformed with an NADPH-dependent oxidoreductase (wild type CBADH), the inventors generated two triple mutants where, in addition to adhE and ldhA, one transhydrogenase gene was deleted in each. Transhydrogenases catalyse the direct transfer of electrons from NADH to NADP+ and from NADPH to NAD+, in the following reaction: NADH+NADP^+=NAD^++NADPH. Without wishing to be bound to any particularly theory, the inventors hypothesized the activity of these transhydrogenases is what makes the system able to restore anaerobic growth when transformed with enzymes that generate NADP+. Two triple mutants, where one transhydrogenase gene was knocked out in addition to adhE and ldhA, were generated, since there are 2 transhydrogenase genes in E. coli: • sthA (soluble transhydrogenase) • pntA (transmembrane transhydrogenase).

The next experiment concerns LS5 strain. The experiment is described as follows: Metabolic complementation (anaerobic growth) of quadruple mutant. It counts as cell-based, Escherichia coli. The conditions noted are these: media supplemented with acetone or not. The protocol: as §1
Since in the triple mutants the non-deleted transhydrogenase could still be supporting anaerobic growth under anaerobic fermentation conditions when complemented with an NADPH-dependent oxidoreductase by generating oxidized NAD, the inventors generated a quadruple mutant where adhE, ldhA, sthA and pntA genes were deleted (LS5 strain, FIG. 11).

The mark [4] stands for this setting: exogenous substrate 2-methyl-1-pyrroline.

B1: MsIRED-s: MsIRED variant with N32E, R33V, T34R and K37R, NADH-dependent (protein)
chain: MKPTLTVIGAGRMGSALIKAFLQSGYTTTVWEVRKARSEPLAKLGAHLADTVRDAVKRSDIIVVNVLDYDTSDQLLRQDEVTRELRGKLLVQLTSGSPALAREQETWARQHGIDYLDGAIMATPDFIGQAECALLYSGSAALFEKHRAVLNVLGGATSHVGEDVGHASALDSALLFQMWGTLFGTLQALAISRAEGIPLEKTTAFIKLTEPVTQGAVADVLTRVQQNRLTADAQTLASLEAHNVAFQHLLALCEERNIHRGVADAMYSVIREAVKAGHGKDDFAILTRFLK
modifications: variant of Myxococcus stipitatus imine reductase
notes: MsIRED variant with N32E, R33V, T34R and K37R, NADH-dependent
Consider B1, for which, in the experiment on AL cells (setting [4]), the Acetate concentration is 15.9, the Ethanol concentration is listed as 0, the Formate concentration is 12.8 and the Lactate concentration is 0. In the experiment with AL cells (setting [4]), this molecule showed a Substrate concentration of 0.8 and a Succinate concentration of 2. Moreover, the Product concentration with AL cells (exogenous substrate 2-methyl-1-pyrroline, product 2-methylpyrrolidine) stood at 13.4. Also, the “activity with NADPH” value in experiment [1] is listed as “no activity was detected”. In addition, in experiment [2] (media supplemented with 2-methylpyrroline), the “anaerobic growth compared with best variant of previous studies” value is “more efficiently”.

B2: Clostridium beijerinckii alcohol dehydrogenase (protein, listed as Clostridium beijerinckii)
chain: MKGFAMLGINKLGWIEKERPVAGSYDAIVRPLAVSPCTSDIHTVFEGALGDRKNMILGHEAVGEVVEVGSEVKDFKPGDRVIVPCTTPDWRSLEVQAGFQQHSNGMLAGWKFSNFKDGVFGEYFHVNDADMNLAILPKDMPLENAVMITDMMTTGFHGAELADIQMGSSVVVIGIGAVGLMGIAGAKLRGAGRIIGVGSRPICVEAAKFYGATDILNYKNGHIVDQVMKLTNGKGVDRVIMAGGGSETLSQAVSMVKPGGIISNINYHGSGDALLIPRVEWGCGMAHKTIKGGLCPGGRLRAEMLRDMVVYNRVDLSKLVTHVYHGFDHIEEALLLMKDKPKDLIKAVVIL
In the experiment on AL cells (exogenous substrate acetone), B2 registered an Acetate concentration of 8.1, an Ethanol concentration of 0, a Formate concentration of 5.8 and a Lactate concentration of 0. Besides, in the experiment with AL cells (exogenous substrate acetone), the Substrate concentration stood at 0.1 and the Succinate concentration turned out to be 1.1. The Product concentration in the experiment on AL cells (exogenous substrate acetone, product isopropanol) was 10.8. Moreover, the anaerobic growth result in experiment [3] is recorded as “still able to grow anaerobically”. Moreover, in experiment [2] (LS1 cells cultured anaerobically, media supplemented with acetone), the “time after which growth recovery was observed” value is 55 h. The anaerobic growth result in the experiment with LS5 strain is given as “anaerobic growth is not restored”.
